Data set [1] addresses T1, RIG-I (hRIG-I) (human, UniProt O95786 1-925).
T1 sequence: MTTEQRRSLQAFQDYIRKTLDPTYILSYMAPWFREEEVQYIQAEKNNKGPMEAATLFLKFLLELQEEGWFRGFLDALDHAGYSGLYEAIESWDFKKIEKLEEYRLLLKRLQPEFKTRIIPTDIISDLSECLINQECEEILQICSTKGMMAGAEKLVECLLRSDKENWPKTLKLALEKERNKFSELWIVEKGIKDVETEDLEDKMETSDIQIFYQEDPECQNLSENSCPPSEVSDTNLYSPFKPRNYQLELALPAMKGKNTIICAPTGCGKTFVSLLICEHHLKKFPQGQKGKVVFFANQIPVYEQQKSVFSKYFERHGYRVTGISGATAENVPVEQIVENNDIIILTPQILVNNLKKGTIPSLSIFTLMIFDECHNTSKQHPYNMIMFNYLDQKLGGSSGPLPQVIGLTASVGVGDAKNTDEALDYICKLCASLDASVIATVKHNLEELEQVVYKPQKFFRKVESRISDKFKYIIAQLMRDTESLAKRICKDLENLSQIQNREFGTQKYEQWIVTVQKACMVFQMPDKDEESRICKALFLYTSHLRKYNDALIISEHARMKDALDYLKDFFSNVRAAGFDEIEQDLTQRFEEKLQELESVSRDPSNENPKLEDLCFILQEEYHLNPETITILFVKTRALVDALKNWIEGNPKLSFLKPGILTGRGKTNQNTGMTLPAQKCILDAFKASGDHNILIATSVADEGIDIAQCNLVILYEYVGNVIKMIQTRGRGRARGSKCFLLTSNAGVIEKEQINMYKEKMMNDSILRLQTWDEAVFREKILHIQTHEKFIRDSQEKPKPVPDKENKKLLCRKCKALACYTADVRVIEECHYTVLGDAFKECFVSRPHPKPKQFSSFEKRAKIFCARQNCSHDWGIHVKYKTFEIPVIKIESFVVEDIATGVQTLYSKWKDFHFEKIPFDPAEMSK
Briefly: SEC-MALLS; 2 mM ATP analogue; complex 110 kDa, 1:1. The note with it: protein: recombinant; double-stranded side products or secondary structure possible.

For data set [2], the target named is T1, RIG-I (hRIG-I). Briefly: SEC-MALLS; 2 mM ATP analogue; complex 113 kDa, 1:1; SEC-MALLS: 37 mM RIG-I, 40 mM RNA (units as printed), 2 mM ATP analogue, S200 column; buffer, salt, pH and temperature not in the material. The note with it: protein: recombinant; double-stranded side products or secondary structure possible.

This note sets out measurements from article PMC4178188, “RIG-I Self-Oligomerization Is Either Dispensable or Very Transient for Signal Transduction”.

B1: Rabies leader 5'ppp-RNA (RabV-L) (ssRNA)
RNA: GGACGCUUAACAACAAAACCAGAGAAGAAAAAGACAGCGUCAAUUGCAAACGAAAAAUGUGC
modifications: 5'-triphosphate
As for B1, the binding result in data set [1] is recorded as “binds”.

B2: Measles leader 5'ppp-RNA (MeV-L) (ssRNA)
RNA: GGACCAAACAAAGUUGGGUAAGGAUAGAUCAAUCAAUGAUCAUAUUCUAGUACACUUGAAUUC
modifications: 5'-triphosphate
In the case of B2, the binding result in data set [2] is on record as “binds”.
